The values that follow come from the DeepSol protein solubility set.

The nature of this data set: soluble on expression in E. coli; label from the status in PepcDB or PDB records.
For “MALHPAHPGAIIGHEAVLALLPRLTAQTLLFSGPEGVGRRTVARWYAWGLNRGFPPPSLGEHPDVLEVGPKARDLRGRAEVRLEEVAPLLEWCSSHPRERVKVAILDSAHLLTEAAANALLKLLEEPPSYARIVLIAPSRATLLPTLASRATEVAFAPVPEEALRALTQDPELLRYAAGAPGRLLRALQDPEGYRARMARAQRVLKAPPLERLALLRELLAEEEGVHALHAVLKRPEHLLALERAREALEGYVSPELVLARLALDLET”, the “soluble on expression in E. coli” value is given as “soluble”. Take “MALKAQNTISGKEGRLFLDGEEMAHIKTFEANVEKNKSEVNIMGRRMTGHKTTGANGTGTATFYKVTSQFVLIMMDYVKKGSDPYFTLQAVLDDASSGRGTERVTLYDVNFDSPKIAGLDVDSEALEEEVPFTFEDFDVPEQLKSTFLEHHHHHH”: the “soluble on expression in E. coli” value is on record as “soluble”. On to “MALLDFFLSRKKNTANIAKERLQIIVAERRRSDAEPHYLPQLRKDILEVICKYVQIDPEMVTVQLEQKDGDISILELNVTLPEAEELK”, for which the “soluble on expression in E. coli” value is recorded as “not soluble”.

Turning to “MALLDKLLTPVMNQYKQPINKCLKVLNKKNNKKTGVAKQNACMDKVWGQALAIITKQFVNKVCTAVAKKMNAKEWNCCKTYVVKVVNVTPYKRFNIVK”, the “soluble on expression in E. coli” value is listed as “not soluble”.

Consider “MALLPFFDLTNFESDASEELGWLKYVGRVQTRVFPQHFKDNLEKVRKISETIDVIVDTTAELGPEACVNLLNAGALAILVNEEMLNELADISPNRLVLKTDTTDIGKIEKLSQVAGSIQWIGSAENYPPDFFERASKIIHKAVMPEGGGRTLYLEFPEQPSMEVLKSFSVHSVVPVLSSSFLTVKPAEEPKKLSLADLILISANTDREDGLFSTLVVNELGIALGLVYSSKESVAESLKTGTGVYQSRKRGLWYKGASSGAVQHLIHIDVDCDEDCLRFVVYQTGKGFCHLDTLHCFGQASGLCQLEKTLIDRKNNAPEGSYTARLFSDPKLLRAKIMEEAEELCDATTKENVIWEMADLMYFAITRCVGSGVSLNDISRHLDLKHRKVTRRKGDAKVAWQEKLKDKGGVANTSYTA”, for which the “soluble on expression in E. coli” value is “soluble”. The same measure for “MALLRIFDAHCDALLKLWEDPAREYTDDPAIEANAVRLMEGGVRAQCFAIFVGPNIPFDQKFQVALQQAELFHEKILKKHPQFSFIERWDDLLTLDADQIGAILTLEGADPFGDDPTKLKTLYRLGVRSLGLTWNQANLCADGVGEPRGGGLTEWGKAVVSLNNEHHVLTDVSHLSERGFWDVIEYAQFPVATHSNAKAICKHRRNLTDAQLKALIEAGGFIGIVFHPHFLTGTDDASIDDVMKHIEHICSLGGQKHVGFGSNFDGIPCFVDGLEHAGRFQWFMDELLKRYDEELVRGFAWDNFLKATPISYVEGHHHHHH”: “soluble”; for “MALNGTPALNVNWHGNYDVIVLGFGGAGASAARFAADNGAHVLVVDAAPFGREGGNTRYSAQHVVTGESLDKLTAYYQALGAPFSTPTKTLNAYLSGMSKIPAYFEKYLGIKAVSWKHDIKPGDAVAIKKTMAEYPELAGSDTIDFALVHKRDKDAALWKLLRQKVLERADNIDVWLDSRAQHLIQDPNTKVIQGVQIKRGERLLNIHANNGVVLAMGGFENNPELKQTYLHSDNLTPLGTLYNRGDGIKMAQEVDAKMWHMTNYESHGILPGLEHHHHHH”: “not soluble”. The same measure for “MALPESESARTEQALGRLVGSLCVVTAQQGELSSAMLASWVSQATFSPPGLTVAVAKERAIESLLHKNSCFVLNILQEGNHLGLMKHFLKPFAPGGDRFADVATETAENGAPILTESLAYLECRVQQRLECGDHWVLYAVTDRGALLKDGVTAVHHRKSGDHYLEHHHHHH”: “not soluble”; for “MALSKRELDELKPWIEKTVKRVLGFSEPTVVTAALNCVGKGMDKKKAADHLKPFLDDSTLRFVDKLFEAVEEGRSSRHS”: “soluble”. Turning to “MALTNAQILAVIDSWEETVGQFPVITHHVPLGGGLQGTLHCYEIPLAAPYGVGFAKNGPTRWQYKRTINQVVHRWGSHTVPFLLEPDNINGKTCTASHLCHNTRCHNPLHLCWESADDNKGRNWCPGPNGGCVHAVVCLRQGPLYGPGATVAGPQQRGSHFVV”, the “soluble on expression in E. coli” value is given as “soluble”. The same measure for “MALTVAKSALEAIREKGLGGFMRMIREEGFMRCLPDGNLLQTKIHNIGATLVGVDKFGNKYYQKLGDTQYGRHRWVEYASKDRYNASQVPAEWHGWLHFITDHTGDELLSLKPKRYGLEHKENFSGEGDAYIYHSKGHTLNPGQKNWTRYQSWVPTKTQ”: “not soluble”.

With “MAMKDKLKNFFSMEDEEYEYEYIETERESHVEHEQKEKPAYNGNKPAGKQNVVSLQSVQKSSKVVLSEPRVYAEAQEIADHLKNRRADVVNLQRIQHDQAKRIVDFLSGTVYAIGGDIQRIGSDIFLCTPDNVDVSGTISELISEDEHQRWLEHHHHHH”, the “soluble on expression in E. coli” value is on record as “not soluble”.

As to “MANDPYIQSFTCFDGTRRLLTAALPEVALALKQAVAGGAAGPLLVFDNATGRSVDLDIRGSSEDLLARLVVAGERQPAEEAAPRGRGRPKLGVVAREVTLLPRHWEWLAAQPGGASVALRKLVEEARRSQSGRARQAQERAYHFMNAMAGDLPGFEEATRALFAGDREGFAERIAGWPTDVREHAAWLASDGES”, the “soluble on expression in E. coli” value was “not soluble”. Take “MANKLRNYTINFGPQHPAAHGVLRMILELDGEQIVRADPHIGLLHRGTEKLAETKTYLQALPYMDRLDYVSMMVNEQAYCLAVEKLVGIDVPIRAQYIRVMFAEVTRILNHLMGIGSHAFDIGAMTAILYAFRDREELMDLYEAVSGARMHAAYFRPGGVYRDLPDFMPKYEGSKFRNAKVLKQLNESREGTMLDFIDAFCERFPKNIDTLETLLTDNRIWKQRTVGIGVVSPERAMQKGFTGVMLRGSGVEWDVRKTQPYEVYDKMDFDIPVGVNGDCYDRYLCRMEEMRQSVRIIKQCSEWLRVNPGPVITTNHKFAPPKRTEMKTGMEDLIHHFKLFTEGMHVPEGETYTAVEHPKGEFGVYIISDGANKPYRLKIRAPGFAHLQGMDEMAKGHMLADVVAIIGTQDIVFGEVDR”: the “soluble on expression in E. coli” value is “not soluble”.

As for “MANKLTILASVVAASTAMMATSAQAADTTLDKVTKQGFLTCGVSTGLPGFSNPNSKGEWEGIDVEYCQALAAAVLGDKTKVKYVPLTAKERFTALQSGEIDVLSRNTTWTLHRDTALGLNFVGVNYYDGQGFMVKKDLGISSAKELDGASVCVQSGTTTELNLADYFRNSGMSYKPVVFDTAAQTSKGFDAGRCDVLTTDQSGLYALRLNLKDPSSAAVLPEIISKEPLGPVVRQGDDQWFNIAKWTLAAMVNAEEYGITSKNADEMLKSQDPNIKRILGVDGPKGKGLGIRDDWGYQVVKQVGNYGESFERTVGKGSPLEIARGVNALWNAGGFMYAPPIR”, the “soluble on expression in E. coli” value is “not soluble”. In the case of “MANLPSSSGMFSRLLANVFNTTVASRCSASGRWWPQPEYELSKHRSRAPSMGIHRRTRLNVVDNSALGKEADTTGKLPYCIHVYKQGRRAKHMPHAELGDKILVAIRGQMRKAYVVGANTHVHYRKHGVPVTDQNMIVLLDEEGNPLGNRITAPIPTKLMANRGNVQFSKVLALANKFI” it was “soluble”; in that of “MANSAGSMAPKVFYISDGTAITAEVFGHAVLSQFPLEFESLTIPFVETLAKAENVKRQINDCFITTGERPLVFHSIVKPEIRDIIYSSEGLDYDFLNTFVAPLEQHLGVSASPVLHRTHGKANQGYEARIDAINFAMDNDDGQTMKHMDQADLILLGVSRCGKTPSSLYLSMQFGIKAANYPFTEDDMDNLKLPEALKRNKKKLFGLTIDPVRLHEIRQSRMENSRYSSLKQCRLEVKEVEMMFKRERIPYIDTTNHSVEEIATKILDVTGLERHMFLEHHHHHH”, “not soluble”; in that of “MANSAGSMTIFVISDSAGETASKLAAASMAQYPTVDFTLIRRTFVKDEDKLVQALEDAKKAEAMVLHTIINDHLVAIANQFFNEHQLFHFDILTPPVAEIERLTGVAPMREPGALHHLNENYFKRIEAMEFAVKYDDGKDPRGFLEADVLLLGVSRTSKTPLSLFLANKNLKVANLPLIPEAHLPKQLFEMDPKKIVGLTNDPNVLNGIRKERMRAYGLPENTSYSDIEKIRRELAFANDLYQKLGCIVIDVASLSIEETASMILNALNLEDHSYYSTETSEDLEHHHHHH”, “not soluble”. For “MANSITADEIREQFSQAMSAMYQQEVPQYGTLLELVADVNLAVLENNPQLHEKMVNADELARLNVERHGAIRVGTAQELATLRRMFAIMGMYPVSYYDLSQAGVPVHSTAFRPIDDASLARNPFRVFTSLLRLELIENEILRQKAAEILRQRDIFTPRCRQLLEEYEQQGGFNETQAQEFVQEALETFRWHQSATVDEETYRALHNEHRLIADVVCFPGCHINHLTPRTLDIDRVQSMMPECGIEPKILIEGPPRREVPILLRQTSFKALEETVLFAGQKQGTHTARFGEIEQRGVALTPKGRQLYDDLLRNAGTGQDNLTHQMHLQETFRTFPDSEFLMRQQGLAWFRYRLTPSGEAHRQAIHPGDDPQPLIERGWVVAQPITYEDFLPVSAAGIFQSNLGNETQTRSHGNASREAFEQALGCPVLDEFQLYQEAEERSKRRCGLLLEHHHHHH”, the “soluble on expression in E. coli” value is given as “soluble”. The same measure for “MANVGGRRKPAADARLEVIQKLFPEAVVDGGIDWELLKRVFGGHERQEAYEFTWPGKAEARRLAELPASGVLRPDQAASKQWETTNNWYIEGDNLEALKLLRTSHAGTIQMIYIDPPYNTGKVLTYKDNWRKGKAVVPSGIQEEARGHVGWLNMMYPRLWVARELLAETGAIFISIDDTEQANLRKMCDEIFGERNFVATFIWQRAFSPVNMNKFASRNHDFILCYAKNIDRLAWYGLPRHPEADVRYANPDNDPRGPWMSGDLSVGPPIPEKIYEIVTPSGRVVSPPNGYCWRVTKERFAELAADNRIWFGKDGNGVPRLKRFLSEVKSTVTPLTIWTHDEVSHSQEAKKELKELFDGLAVMDYPKPVKLIQRMVALTTRDDDPILDFFSGSATTAHAVMQQNAEDGGRRSFIMVQLPERLAETSEAYRVGFRTICDIGRERIRRAGEKIVYETGKTELDIGFKVFRIERTNQPAR”: “not soluble”. The same measure for “MANYWLYKSEPFKWSWEMQKAKGETGEEWTGVRNYQARNNMRAMKIGDKGFFYHSNEGLDVVGIVEVCALSHPDSTAEGDLKWDCVDIRAVCDMPQPVSLKDVKANPKLEKMSLVTSMRLSVQPVTEEEYLEVCRMGGLANPPKSPDLEHHHHHH”: “soluble”. The same measure for “MAPATQRNRETIAAVLQEYLPSQGSILEIASGTGEHACFFAPLFSPRWWITSDPDPLCRESIMAWRDHQALANFQSPLDLDVNDQVWPVEREILREPVTSIVAINLIHISPWESCLGLLTGAERILPEGGILYLYGPYRQKGVPTAPSNEAFDQSLQSRNPAWGLRQLEDVIGEAGKRNLHNQAIIPMPANNLSVIFQKGLEHHHHHH”: “soluble”; for “MAPKKVLLALTSYNDVFYSDGAKTGVFVVEALHPFNTFRKEGFEVDFVSETGKFGWDEHSLAKDFLNGQDETDFKNKDSDFNKTLAKIKTPKEVNADDYQIFFASAGHGTLFDYPKAKDLQDIASEIYANGGVVAAVCHGPAIFDGLTDKKTGRPLIEGKSITGFTDVGETILGVDSILKAKNLATVEDVAKKYGAKYLAPVGPWDDYSITDGRLVTGVNPASAHSTAVRSIDALKN”: “soluble”.
